This note sets out measurements from patent US9714285 (dated 2017).

Test [1] deals with T1, TGFβ2 (human, UniProt P61812).
T1 chain: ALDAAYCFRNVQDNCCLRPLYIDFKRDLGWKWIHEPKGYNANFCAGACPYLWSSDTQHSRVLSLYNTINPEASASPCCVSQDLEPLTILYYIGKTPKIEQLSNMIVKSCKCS
In words: SPR. On the technique in general: SPR reads the build-up and loss of mass on a sensor chip optically.

The target in test [2] is T2, TGFβ3 (human, UniProt P10600).
T2 chain: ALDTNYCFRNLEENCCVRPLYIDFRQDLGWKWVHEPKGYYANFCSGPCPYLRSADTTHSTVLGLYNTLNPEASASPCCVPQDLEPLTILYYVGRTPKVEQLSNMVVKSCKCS
Put plainly: SPR.

In test [3] the target is T3, TGFβ1 (human, UniProt P01137). In words: SPR.
The target in test [4] is T1, TGFβ2. Put plainly: competition, SPR vs TGFβ-RIII.
The target of test [5] is T2, TGFβ3. In words: competition, SPR vs TGFβ-RIII.
Test [6] has as its target T3, TGFβ1. Put plainly: competition, SPR vs TGFβ-RIII.
Test [7] deals with T3, TGFβ1. Put plainly: competition, SPR vs TGFβ-RII.
Test [8] has as its target T1, TGFβ2. Put plainly: competition, SPR vs TGFβ-RII.
In test [9] the target is T2, TGFβ3. Put plainly: competition, SPR vs TGFβ-RII.

B1: TGFβ-RI (protein)
chain: LQCFCHLCTKDNFTCVTDGLCFVSVTETTDKVIHNSMCIAEIDLIPRDRPFVCAPSSKTGSVTTTYCCNQDHCNKIELPTTVKSSPGLGPVEL
B1: the binding result in the test with TGFβ2 [1], in the test with TGFβ3 [2] and with TGFβ1 [3] was “no binding” in each case.

B2: XPA.42.089 (antibody, V domains shown)
VH: QVQLVQSGAEVKKPGSSVKVSCKASGGTFSSYAISWVRQAPGQGLEWMGGIIPIFGTANYAQKFQGRVTITADESTSTAYMELSSLRSEDTAVYYCARGLWEVRALPSVYWGQGTLVTVSS
VL: SYELTQPPSVSVAPGQTARITCGANDIGSKSVHWYQQKAGQAPVLVVSEDIIRPSGIPERISGSNSGNTATLTISRVEAGDEADYYCQVWDRDSDQYVFGTGTKVTVLG
In general, EC50 refers to the midpoint of the concentration-response curve. Low values mean higher potency in that assay, high ones lower potency in that assay. Regarding B2, the 50% effective concentration (EC50) with TGFβ2 [4] was determined as 1.6 nM; in the test with TGFβ3 [5], 31 nM; with TGFβ1 [6] it was 1.2 nM; in the test with TGFβ1 [7], 1.7 nM; with TGFβ2 [8], 1.8 nM; with TGFβ3 [9], 34 nM.

B3: XPA.42.681 (antibody, V domains shown)
VH: not shown
VL: SYVLTQPPSVSVAPGKTARITCGGNNIGFRSVHWYQQKSGQAPVLVIYFDRARPSGIPERFSASNSENTATLTIRRVEAGDEADYYCQVWDSDSDDLVFGGGTQLTVLG
On to B3, for which the EC50 with TGFβ2 [4] stood at 2.1 nM; with TGFβ3 [5], 1.1 nM; with TGFβ1 [6], 1.2 nM; in the test with TGFβ1 [7], 2.3 nM; with TGFβ2 [8], 1.7 nM; in the test with TGFβ3 [9] it was 1.2 nM.

B4: XPA.42.068 (antibody, V domains shown)
VH: not shown
VL: SSELTQPPSVSVAPGEKARITCGGNNIGRKSVHWYQQRPGQAPVVVLYYDRVRPSGIPERFSGSNSGNTATLTITRVEAGDEADYFCQVWDNTSEHVVFGGGTQLTVLG
Take B4: the EC50 in the test with TGFβ2 [4] is 2.4 nM; in the test with TGFβ3 [5] it was 1.9 nM; with TGFβ1 [6] it was 0.6 nM; with TGFβ1 [7], 2 nM; in the test with TGFβ2 [8], 2.2 nM; in the test with TGFβ3 [9], 1.4 nM.
